Assay results as given in US20220064329A1 (Novo Nordisk, published 2022).
Substitutions are numbered along the chain they refer to. Names and notes keep the numbering of the source. One block for each binder: values may come before it.

Molecular target: T1, recombinant human activated Factor VII (FVIIa) (human, UniProt P08709 61-212; P08709 213-466, ten glutamate residues of the Gla domain may be gamma-carboxylated)
T1 construct: chains tethered by a disulfide bond; also called Factor VIIa; rFVIIa
T1 sequence 1: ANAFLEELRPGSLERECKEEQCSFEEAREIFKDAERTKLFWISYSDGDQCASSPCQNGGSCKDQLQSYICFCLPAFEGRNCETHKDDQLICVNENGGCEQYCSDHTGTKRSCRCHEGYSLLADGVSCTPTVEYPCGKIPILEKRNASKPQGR
T1 sequence 2: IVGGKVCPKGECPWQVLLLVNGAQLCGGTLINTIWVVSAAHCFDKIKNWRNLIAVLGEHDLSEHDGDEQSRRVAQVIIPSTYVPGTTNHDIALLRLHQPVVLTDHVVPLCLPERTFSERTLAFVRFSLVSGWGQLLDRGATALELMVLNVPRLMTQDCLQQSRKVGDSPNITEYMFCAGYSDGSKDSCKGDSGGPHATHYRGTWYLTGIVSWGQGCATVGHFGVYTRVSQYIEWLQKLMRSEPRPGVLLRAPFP
Assay: BLI (Fortebio)
Description: All steps were performed in running buffer (20 mM HEPES buffer (pH 7.4), 150 mM NaCl, 5 mM CaCl2, 0.03% Tween 20, 1 mg/ml IgG-free BSA) at […] Antibodies were captured on anti-human tips (AHC, Fortebio) for 3 min at a concentration of 10 ug/ml. This was followed by a 3 min incubation to establish a baseline. Following this, association was monitored for 3 min using four different concentrations of VIIa (25 nm, 50 nM, 100 nM, and 200 nM), followed by a 3 mi dissociation. Sensorgrams were analysed using Fortebio data analysis software.

B3: VH SEQ ID NO 522 / VL SEQ ID NO 406 (antibody, IgG4, V domains shown)
VH: QVQLQESGPGLVEPSQTLSLTCTVSGYSISSDSAWSWIRQPPGKGLEWIGYIQYSGSTNYNPSLKSRVTISRDTSKNQFSLKLSSVTAADTAVYYCARSVNYYGNSFAVGPWGQGTLVTVSS
VL: EIVLTQSPATLSLSPGERATLSCRASQGVSDYLAWYQQKPGQAPRLLIKYASQPATGIPARFSGSGSGTDFTLTISSLEPEDFAVYYCQNGHSFPLTFGAGTKLEIK
notes: humanized 11F2; IgG4 S228P/kappa
- Kd: 17 nM

B5: VH SEQ ID NO 514 / VL SEQ ID NO 438 (antibody, IgG4, V domains shown)
VH: B3 VH with Q16D, T23A, S30T, G45K, I70M, A89L, P111Y
VL: B3 VL with F83V, A100Q
notes: as for B3
- Kd: 5.4 nM

B6: VH SEQ ID NO 514 / VL SEQ ID NO 422 (antibody, IgG4, V domains shown)
VH: B3 VH with Q16D, T23A, S30T, G45K, I70M, A89L, P111Y
VL: B3 VL with N90Q, A100Q
notes: as for B3
- Kd: 68 nM

B7: VH SEQ ID NO 522 / VL SEQ ID NO 430 (antibody, IgG4, V domains shown)
VH: B3 VH
VL: B3 VL with A84G, A100Q
notes: as for B3
- Kd: 12 nM

B8: VH SEQ ID NO 514 / VL SEQ ID NO 390 (antibody, IgG4, V domains shown)
VH: B3 VH with Q16D, T23A, S30T, G45K, I70M, A89L, P111Y
VL: B3 VL with Q42E, A100Q
notes: as for B3
- Kd: 4.7 nM

B9: VH SEQ ID NO 522 / VL SEQ ID NO 414 (antibody, IgG4, V domains shown)
VH: B3 VH
VL: B3 VL with A100Q
notes: as for B3
- Kd: 31 nM

B10: VH SEQ ID NO 522 / VL SEQ ID NO 438 (antibody, IgG4, V domains shown)
VH: B3 VH
VL: B3 VL with F83V, A100Q
notes: as for B3
- Kd: 57 nM

B14: VH SEQ ID NO 522 / VL SEQ ID NO 310 (antibody, IgG4, V domains shown)
VH: B3 VH
VL: B3 VL with V29I, A100Q
notes: as for B3
- Kd: 8.3 nM

B15: VH SEQ ID NO 522 / VL SEQ ID NO 374 (antibody, IgG4, V domains shown)
VH: B3 VH
VL: B3 VL with V29L, A51T, A100Q
notes: as for B3
- Kd: 14 nM

B16: VH SEQ ID NO 514 / VL SEQ ID NO 398 (antibody, IgG4, V domains shown)
VH: B3 VH with Q16D, T23A, S30T, G45K, I70M, A89L, P111Y
VL: B3 VL with Q42E, A51T, A100Q
notes: as for B3
- Kd: 7.9 nM

B17: VH SEQ ID NO 522 / VL SEQ ID NO 398 (antibody, IgG4, V domains shown)
VH: B3 VH
VL: B3 VL with Q42E, A51T, A100Q
notes: as for B3
- Kd: 320 nM

B20: VH SEQ ID NO 522 / VL SEQ ID NO 366 (antibody, IgG4, V domains shown)
VH: B3 VH
VL: B3 VL with V29L, Q42E, A100Q
notes: as for B3
- Kd: 14 nM

B21: VH SEQ ID NO 514 / VL SEQ ID NO 446 (antibody, IgG4, V domains shown)
VH: B3 VH with Q16D, T23A, S30T, G45K, I70M, A89L, P111Y
VL: B3 VL with A51T, A100Q
notes: as for B3
- Kd: 7.7 nM

B22: VH SEQ ID NO 514 / VL SEQ ID NO 414 (antibody, IgG4, V domains shown)
VH: B3 VH with Q16D, T23A, S30T, G45K, I70M, A89L, P111Y
VL: B3 VL with A100Q
notes: as for B3
- Kd: 4.6 nM

B23: VH SEQ ID NO 522 / VL SEQ ID NO 390 (antibody, IgG4, V domains shown)
VH: B3 VH
VL: B3 VL with Q42E, A100Q
notes: as for B3
- Kd: 15 nM

B30: VH SEQ ID NO 522 / VL SEQ ID NO 422 (antibody, IgG4, V domains shown)
VH: B3 VH
VL: B3 VL with N90Q, A100Q
notes: as for B3
- Kd: 110 nM

B31: VH SEQ ID NO 514 / VL SEQ ID NO 494 (antibody, IgG4, V domains shown)
VH: B3 VH with Q16D, T23A, S30T, G45K, I70M, A89L, P111Y
VL: B3 VL with A34H, F83V, A100Q
notes: as for B3
- Kd: 1.4 nM

B32: VH SEQ ID NO 514 / VL SEQ ID NO 430 (antibody, IgG4, V domains shown)
VH: B3 VH with Q16D, T23A, S30T, G45K, I70M, A89L, P111Y
VL: B3 VL with A84G, A100Q
notes: as for B3
- Kd: 7.1 nM

B33: VH SEQ ID NO 514 / VL SEQ ID NO 406 (antibody, IgG4, V domains shown)
VH: B3 VH with Q16D, T23A, S30T, G45K, I70M, A89L, P111Y
VL: B3 VL
notes: as for B3
- Kd: 5.3 nM

B35: VH SEQ ID NO 514 / VL SEQ ID NO 478 (antibody, IgG4, V domains shown)
VH: B3 VH with Q16D, T23A, S30T, G45K, I70M, A89L, P111Y
VL: B3 VL with A34H, N90Q, A100Q
notes: as for B3
- Kd: 1.9 nM

Now from value to binder:

- Kd: 0.87 nM
B1: VH SEQ ID NO 514 / VL SEQ ID NO 358 (antibody, IgG4, V domains shown)
VH: B3 VH with Q16D, T23A, S30T, G45K, I70M, A89L, P111Y
VL: B3 VL with V29I, A34H, A51T, A100Q
notes: as for B3

- Kd: 1.4 nM
B2: VH SEQ ID NO 522 / VL SEQ ID NO 342 (antibody, IgG4, V domains shown)
VH: B3 VH
VL: B3 VL with V29I, A34H, A51T, T69R, I106L
notes: as for B3

- Kd: 1.2 nM
B4: VH SEQ ID NO 522 / VL SEQ ID NO 334 (antibody, IgG4, V domains shown)
VH: B3 VH
VL: B3 VL with V29I, A34H, A100Q
notes: as for B3

- Kd: 1.2 nM
B11: VH SEQ ID NO 514 / VL SEQ ID NO 382 (antibody, IgG4, V domains shown)
VH: B3 VH with Q16D, T23A, S30T, G45K, I70M, A89L, P111Y
VL: B3 VL with V29L, A34H, Q42E, A100Q
notes: as for B3

- Kd: 1.3 nM
B12: VH SEQ ID NO 514 / VL SEQ ID NO 454 (antibody, IgG4, V domains shown)
VH: B3 VH with Q16D, T23A, S30T, G45K, I70M, A89L, P111Y
VL: B3 VL with A34H, Q42E, A100Q
notes: as for B3

- Kd: 0.92 nM
B13: VH SEQ ID NO 514 / VL SEQ ID NO 502 (antibody, IgG4, V domains shown)
VH: B3 VH with Q16D, T23A, S30T, G45K, I70M, A89L, P111Y
VL: B3 VL with A34H, A51T, A100Q
notes: as for B3

- Kd: 0.81 nM
B18: VH SEQ ID NO 522 / VL SEQ ID NO 326 (antibody, IgG4, V domains shown)
VH: B3 VH
VL: B3 VL with V29I, A34H, Q42E, A51T, A84G, I106L
notes: as for B3

- Kd: 0.95 nM
B19: VH SEQ ID NO 514 / VL SEQ ID NO 486 (antibody, IgG4, V domains shown)
VH: B3 VH with Q16D, T23A, S30T, G45K, I70M, A89L, P111Y
VL: B3 VL with A34H, A84G, A100Q
notes: as for B3

- Kd: 1.3 nM
B24: VH SEQ ID NO 522 / VL SEQ ID NO 358 (antibody, IgG4, V domains shown)
VH: B3 VH
VL: B3 VL with V29I, A34H, A51T, A100Q
notes: as for B3

- Kd: 1.2 nM
B25: VH SEQ ID NO 514 / VL SEQ ID NO 462 (antibody, IgG4, V domains shown)
VH: B3 VH with Q16D, T23A, S30T, G45K, I70M, A89L, P111Y
VL: B3 VL with A34H
notes: as for B3

- Kd: 1.3 nM
B26: VH SEQ ID NO 522 / VL SEQ ID NO 350 (antibody, IgG4, V domains shown)
VH: B3 VH
VL: B3 VL with V29I, A34H, A51T, I106L
notes: as for B3

- Kd: 1.2 nM
B27: VH SEQ ID NO 514 / VL SEQ ID NO 470 (antibody, IgG4, V domains shown)
VH: B3 VH with Q16D, T23A, S30T, G45K, I70M, A89L, P111Y
VL: B3 VL with A34H, A100Q
notes: as for B3

- Kd: 0.97 nM
B28: VH SEQ ID NO 522 / VL SEQ ID NO 318 (antibody, IgG4, V domains shown)
VH: B3 VH
VL: B3 VL with V29I, A34H, Q42E, A51T, A100Q
notes: as for B3

- Kd: 1.4 nM
B29: VH SEQ ID NO 514 / VL SEQ ID NO 366 (antibody, IgG4, V domains shown)
VH: B3 VH with Q16D, T23A, S30T, G45K, I70M, A89L, P111Y
VL: B3 VL with V29L, Q42E, A100Q
notes: as for B3

- Kd: 1.3 nM
B34: VH SEQ ID NO 522 / VL SEQ ID NO 382 (antibody, IgG4, V domains shown)
VH: B3 VH
VL: B3 VL with V29L, A34H, Q42E, A100Q
notes: as for B3
